Reference: publication PMC4865440

Molecular target: recombinant gp120 from HIV-1 strain IIIB (HIV-1 strain IIIB) (UniProt P04578)

| Substance | EC50 of whole-cell HIV neutralization assay (XTT viability of CEM-SS cells challenged with HIV-1RF), purified ^ECGRFT | EC50 of whole-cell HIV neutralization assay (XTT viability of CEM-SS cells challenged with HIV-1RF), purified ^OSGRFT |
| --- | --- | --- |
| griffithsin produced in Escherichia coli (^ECGRFT) (from UniProt P84801 1-121) (natural protein) | 0.33 nM | – |
| griffithsin produced in rice endosperm (^OSGRFT), His6-tagged (from UniProt P84801 1-121) (natural protein) | – | 0.27 nM |
